Among the data in a protein production outcome set (Wang et al. 2014) are protein production values, retold here.
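Further: failed if final PepcDB status was selected cloned or expressed and not failed if soluble or beyond.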

A short description of the data set: label from the status in PepcDB records.
As to “MGIRRLVSVITRPIINKVNSSGQYSRVLATREDQDKASPKYMNNDKIAKKPYTYRLFSILGILSICSLLLISLLKPFNGADAPQCESIYMFPSYARIDGFDERYTPLAHKYHLYLYREQSVDREPLNGDELQLDGIPVLFIPGNAGSFRQCRSIASACSNIYFDSNTRATLRNENVRNLDFFTADFNEDFTAFHGETMLDQAEYLNDAIKYILSLYERTPDYPHPKPQSVIIVGHSMGGIVSRVMLTLKNHVPGSISTILTLSSPHAASPVTFDGDILKLYKNTNEYWRKQLSQNDSFFSKNISLVSITGGILDTTLPADYASVEDLVSLENGFTSFTTTIPDVWTPIDHLAIVWCKQLREVLARLLLESIDASKPEKVKPLNQRLQIARKLLLSGFEDYSWMNSKLNYPQENLQEFSDNFFSDYATLEMNDVLDFEMFNLEKWHNNYTKINIPSNISSTEHLHFTLLTSLDMPMIYFCTESRVNLSCITAVDSILTVPRSSKDTQFAADSSFGEAKNPFKAVSVGKNILQKYDYLMISKPTYGEFSEQEGMEDNQGFLLALLRNVSNVQIVNTTPSQILLFGEQLHLDGKDIEQVISFSNLWDSLLSYKLETKIEASNEGIASEETLFQPFIRQWVYEPFESKWHLNIINKSLDINMHNVAPFIPLNESEPRSLQLSFFIPPGMSLEAKMTINWSLTLKMLFIRYRLALASFPVAFIALVLSYQFYWYNKTSEFPSFDSTLGYILRKHGILMFFTLFLASPVVNNKLVQRILYLLDPVGLNYPFLLSERNMHANFYYLGIRDWFMSTIGILFGVMTVGLLALVSKIFGSLEILVIFLQRKLSKKNTEDKEAFDTIEHKAYGKGRLMASVLLLLLVFFHIPYQMAFVISLVIQIATCIRVALLKLSNNEQKLNLLNYNMTLLLLLLFVSAINIPIIIVFLHNVAIKWETSFRSHHNILAVAPIIFLVGNNSIFKMPNSVPLDTWDGKVTIILFVYLTVFSFIYGIRNLYWIHHLVNIICAWLLFFETIH”, the protein production result is “failed”. “MVAEITAPKSMGKVLGYNFSKVTAGNASVILTSSMSVDANGETNFERALTDMDMRIPSGIRTKKTVFHCSLNPHPDDRLTTEQLQDIAREYMEKMGYGKQPYIVFKHNDIAREHIHIVSLRVDSYGKKLPYKFEARRSKRITDELERKYGLIPSGNRRSRHETHAENVLKTADVKQGDVRRQIAAVVRAVLKRYAFRSLGEMNLLLARYHIVAEEVRKEYKGKRYDGLVYAITDDAGEKRMIPLHAGKIGRGTGYAAVVRHFEKSKALIKEKAPMLRNAIIEVMQSSPDKERFSEEMKKRGIDVHIRQNEQGRIYGITFISDEAGIAANGSRLGKGYSAHVFNDYFLGG”: the protein production entry is recorded as “not failed”.

Regarding “MMTLVILLLFLLFCVLVFWISITFSIKYVLIFTAFLFSGLLVYYSFLTLAGLVHRSRKQKDRTLEHYPSVDILIPAHNEGVVIKDTLEAMAKIEYPGKLTVYLLNDNSQDETPEIGDDFDKAYAHIRHIRVPPGEPKGKSRVLNYGLSISDGEYFCVYDADNQPEPHALRMLVEHAETTEDAVGAVGHVRTVNEKRNWLTRMISLEFQIFQLLMQSGRWLLFQTGSLTGTNMLLRRAALEELGGYDPYAIAEDAELTLRITQKGYLLPIVPESITWEQEPEHLKILIKQRTRWLQGNLYILEKMFSSLSFFKGKLLVHSLQQVLVYVVFWLFLIISNVWFVIGLLGIFQIQYSIPLLFMWYVAYVTYVSQLFSAQSVERTFTPTNIFISVIMYFTYAQLFTYLFIRSLILYLRAKSKKQVIGWDKTVRFKKDK”, the protein production result is reported as “failed”. In the case of “SLLSYQHGYHAGNFADVIKHITLTRLLAYLTHKDKPLFYLETHSGRGIYDLKDKQSLKTEEYKEGINPVWLDRENLPSLFLEYISVIKQINLNSTLSYYPGSPYFAINQLRSQDRLYLCELHPTEYNFLLKLPHFNKKVYVNHTDGVSKLNALLPPPEKRGLIFIDPSYERKEEYKEIPYAIKNAYSKFSTGLYCVWYPVVNKAWTEQFLRKMREISSKSVRIELHLNPLINEGMTGCGLWIINPPYTFPSEIKLVLETLTTYFNPGSSSYMIESGSKLCHGL” it was “not failed”; in that of “IFRVLDDVDTAVFNRVGTLTDGEMTVETVTADKGEDPELVLRVAGALAMESHHAISKALVKASREARDTGAGGEDVPHWIEVGNVEITEAGSFQATIELPLIKPSGEKIMRTTEALLWRPRSMTEVREHLSPRLVAAATSGGAPLIVRWKGKDRGVITLSDHVRSDSSDAIIAIEEQGIETMMLSRDTYPVARRYADSLGITHVLAGIAPGKKAQVVRAVHTRGSTVAMIGDESVMDCLKVADVGVLMGVDRPSDLRDDSDDPAADVVVMREEVMSVPTLFKLARRYAKLVNGNIALAWIYNGVAM”, “failed”. For the sequence “MGHHHHHHSHMSYKPNLAAHMPAAALNAAGSVHSPSTSMATSSQYRQLLSDYGPPSLGYTQGTGNSQVPQSKYAELLAIIEELGKEIRPTYAGSKSAMERLKRGIIHARGLVRECLAETERNARS”, the protein production result was “failed”.

With “MRMNMKKISLSLLTLGVLSGLSINASALPADFPVMPAATAPVSQYVTAVNADSSITFRLFAPTAKQVSVFTGSTPDSIVSHAMTKDEAGVWSFKTPVQAPNLYEYFFSVDGFRTIDTGTAFTKPQRQVNTSLILVPGSILDVRQIPHGELRTLTYHSNALKSERQMYVWTPPGYSESSKPLPVLYFYHGFGDTGASAVVQGRIPQMMDNLLAEKKIEPMLVVIPDTETDVPGIIPEEYPPQERRKVFYPRNALAADRELIHDIIPAIGKRFNVRQDANGRALAGLSQGGYQALVSGMSHLDHFGWLATFSGVTTETVPNMAVAAQLERPEQINQQLKNLTVVIGETDNITGKDIAGLKTMLEQKNIRFDYTHYPNLGHEMDVWRPAYSEFVQKLFK”, the protein production result was “failed”.

For “SLPMQHVHTSPVRDYRNRCARREGETVFQVVVEETDLRVTALAELATPMAAYVGELRAQLKVWMEFQPAFRHSLVPVEVPEGAPEVVRRMAHGARLVGVGPFAAVAGTIAQMVAERFVDVSPELIVENGGDLYLYSERDRVVGILPDPASGDMVGILVRAGTAPVSLCGSSARIGHSLSLGDGDLAVVRARDASLADAAATAFGNMLRRADDVAAVTERAAQLASIGIEGVYAQCGGRIGIWGDMELAVA”, the protein production result is listed as “not failed”. Turning to “MIIWSGWGFLVAIIVIINTLLGKAIFGSITGDATYFQDHSWPMAVMFIISGVMSWYLGKYINKPDGKVYIDAETGEKVMFNKKHSLFFIKMEYWGPILGVIAIVTLITR”, the protein production entry is recorded as “failed”.

For the sequence “MVFPSEQEQIEKFEKDHVAQHYFEVLRTLISKKSVFAQQVGLKEVANYLGEIFKRVGAEVEIDESYTAPFVMAHFKSSRPDAKTLIFYNHYDTVPADGDQVWTEDPFTLSVRNGFMYGRGVDDDKGHITARLSALRKYMQHHDDLPVNISFIMEGAEESASTDLDKYLEKHADKLRGADLLVWEQGTKNALEQLEISGGNKGIVTFDAKVKSADVDIHSSYGGVVESAPWYLLQALQSLRAADGRILVEGLYEEVQEPNEREMALLETYGQRNPEEVSRIYGLELPLLQEERMAFLKRFFFDPALNIEGIQSGYQGQGVKTILPAEASAKLEVRLVPGLEPHDVLEKIRKQLDKNGFDKVELYYTLGEMSYRSDMSAPAILNVIELAKKFYPQGVSVLPTTAGTGPMHTVFDALEVPMVAFGLGNANSRDHGGDENVRIADYYTHIELVEELIRSYE”, the protein production entry is on record as “not failed”. Turning to “PDAARKAQILWCQPDRAKAWTDWMRKGKFPVGGSICDNPVAETTSLGEQFGFNGTPTLVFPNGRSQSGYSPMPQLEEIIRKNQ”, the protein production result is “not failed”. As to “MATFDTRHRTALTMSADRLEQLKTFHEEDPEDPFTRYALAQEHLKHDNASRALALFEELVETDPDYVGTYYHLGKLYERLDRTDDAIDTYAQGIEVAREEGTQKDLSELQDAKLKAEGLEHHHHHH”, the protein production entry is recorded as “not failed”. In the case of “MIRKYRYGAPFDTEALTEKIETAEEAFPYGEISQKEGFAFTYIMDEDDIVYGLGESNRGINKRGYCYISNCTDDPIHTEDKRSLYGAHNFIIVSGKTTFGLFFDYPSKLTFDIGYTRMDTLKVSCENADLDIYVIEGENAYDIVKQFRRVIGRSYIPPKFAFGFGQSRWGYTTKEDFRAVAKGYRENHIPIDMIYMDIDYMQDFKDFTVNEKNFPDFPEFVKEMKDQELRLIPIIDAGVKVEKGYEVYEEGVKNNYFCKREDGSDFVAAVWPGDTHFPDMLNPEARKWFGDKYRFLIDQGIEGFWNDMNEPAIFYSSEGLAEAKEFAGEFAKDTEGKIHPWAMQAKMKDIVNSPEDYKRFYHNVNGKKIRHDKVHNLFGYNMTRAAGEAFERIDPEKRFLMFSRSSYIGMHRYGGIWMGDNKSWWSHILLNLKMLPSLNMCGFMYTGADLGGFGDDTTRDLLLRFLALGVFTPLMRDHAAEGTREQECYQFENIEDFRSVINARYRLVPYLYSEYMKAALNDDMYFKPLGFVYPDDKMAIRVEDQLMLGNEIMIAPVYEQNARGRYVYLPEEMKFIKFMPDGSISEEVLEKGVHYVDVALNEVPLFIRSGKCIPVAEAAECVKDIDTENMQLIGYEGSSYTLYEDDGIHKDYDKKENYRVLTK”, the protein production result is on record as “not failed”. For “MTPEPDGPEDRLRRFATIWSRAVFPVTSTPLTRPELENRLLPLARRLSEALRARAFDAAEAKAVGAALIDAHCTDPDALSATLDCVDAYLVLYCGTPDASPGDQEALRTRASRLQHAMAAGFAQALRERTLAEQEAISVAALQAQGVVGQALHASEARFRAVFEGAAIGIGIADLEGNILQINGALLRMFGGSEQAVRGRNVTDWTHPDDAPQVWRLYEELVRGEREHYHVEKAFYRPDGTVLWTNLTVSLLRDADGRPEYQLALMEDTTERRLLNLRLRYEATHDALTGLPNRTLFFERLEKALSAGGGQRFGLCYLDLDGFKTINDSLGHAAGDRLLVEVADRLQSCATAPGEMVARLGGDEFVALTTGPDTEREVDELAGRIMNALVTPISIDGRELAVRGSIGIVEGPAGERGPAEVLRSADITMYRAKSAGGNRFELADPEADARAITRHGLTTALPAALDRNEFFIEYQPLVHLGDGSVRGAEALVRWLHPQHGVLGPDRFIPLAEHTGLIVPLGRWVLEQSVRQAREWQERHCAEAAAPLRINVNLSPCQLTHPGLVSDTVDILERSGLEPGALCLEVTESALIGADDDLLKPLRRLAEMGVDIALDDFGTGYSNLANLRRLPVSILKLDRSFTQGMQQYPADPVDLKIVEGIVTLAHSLDLAVTVEGVETGAQAEQLRILGCDTAQGWYYARPGPPERLHELALVDATG”, the protein production entry was “failed”. For the sequence “MSYSEIAACLAYAVSVWLAARNNVHTWWIGIIGSILYGWVFWSVQLYADVTLQLFFIATSITGWIHWLKGQGGDILPVRRTQASHFFLLLLCAVVVAGGYGFLLHTFTNAWAPWLDSLILTFSVLAQFMLMGRRIENWFVWLAVNTLAVPLYMTRGLNLTAGLYFLFWINAWHGLYQWRKELQTS”, the protein production result is recorded as “failed”. In the case of “MSIAIRIATIGALCAASAALSGCGSVGAASGALAGAATGLVTANPAVGVGVGIAVQAATDEAVNRTMKQLHQNQQDAIAKAAGSLAVGEVKPWKVKNTLPLENGEGEVRVTRAYSTALALCKEFAFSVKDGDKADWYFANACQQGTHWKWASAEPAVDRWGNLQ” it was “failed”; in that of “MALPDRRAEGVAASLAGALIPAFLAAQDRIIEMVPFRTSATLFAFVLTIVFLAFALRVLFSFRDVRSAAVETALFATGFLYVPLLLTHLAWLRALPDGVGWIFLVLVIVMSGDTAAYYVGSNLGRRKLYPSVSPNKSVEGAIGGLLGSLAGTFVARLTFFPGLTVLDCIATALLLGVLGQVGDLFESLLKRSFGVKDSGTIVPGHGGILDRLDSILFAVPAAYYYALFVFMNR”, “failed”; in that of “MSNDLINGSILHCLETASLGMPLEVWKTRMCVYRNENTIKSFKNIYNKGLGQFYAGFYAKLIESGSKGAVLLLSKEQIIKVCNDMNINKTTSGFIGGACGGICQSLVMTPCTFFITASIDKKINYKEKLIHIFKNTGITTLYKGNTAMCLRQGTNWASRQGITEWIRNIVMERKKNRKNKNDDINNVKGMIFSGNDITTDKIKHNNNNNNNNNTSQSKSLELTTSEELFCGIVGGALSVWNNPFDVVRVYMQNNANKNIKLTFFQSFIHLYKEGGILYLYKGVIPRCFLCIWQTLFMVTGIKILNKYF”, “failed”.
